# Measurements as given in patent US11981714B2, “CCR5 and CD4 siRNA-targeted phospholipid nanosomes therapeutics for treatment of HIV-1 and other diseases” (priority 2020, dated 2024).
# B1: RANTES: CC chemokine, molecular weight 7,900, natural ligand of CCR5; unencapsulated in Table 13 (protein, UniProt P13501 24-91, looked up)
# C-C motif chemokine 5: SPYSSDTTPCCFAYIARPLPRAHIKEYFYTSGKCSNPAVVFVTRKNRQVCANPEKKWVREYINSLEMS
# System: HIV-1 RF, NIH Cat #2804
# Experiment: Infectivity assay by BFUs on MAGI P4/R5 cells with and without lipofectamine (RNA-I-61)
# Assay type: cell-based
# Details: naked (unencapsulated), Presence of Lipofectamine
# Protocol: A knockdown study (RNA-I-61) of the 8 nanoencapsulated and the corresponding unencapsulated (naked) siRNA preparations along with two controls described in the previous experiments was performed using freshly reconstituted materials with HIV-1 RF, NIH Cat #2804, diluted to contain ˜100 Blue Focus forming Units (BFUs) per dose of inoculum. […] The objective of this experiment was to test a range of concentrations of the inhibitors to determine the ID50 for each preparation based on the siRNA content. Since the nanosomal materials were freshly reconstituted, they were recharacterized.
# The reconstituted samples as well as the naked siRNA preparations were tested for virus infection inhibitory activity. The inhibition of infectivity was measured by counting the number of blue foci due to the induced β-galactosidase activity in the host MAGI P4/R5 cells by the infecting HIV. […] The number of BFUs for each treatment at various dilutions were used to calculate the % inhibition from the corresponding dilution for the Negative_siRNA samples. The inhibitor activity was also quantified by measuring the p24 antigen concentration in each of the wells.
# Infectivity Assay by BFUs: The percent inhibitions obtained with various Nanosomal_siRNA formulations versus Negative_siRNA formulations in the presence of lipofectamine are listed in Table 12.
# 50% Inhibitory Dose (ID50) Values: The data from RNA quantification using gel analysis and the infectivity results were used to plot dose response curves and calculate the ID50 (a.k.a. Inhibitory Concentration that results in 50% inhibition, [IC50]) values.
molecule,measurement,setting,value
B1,Inhibition of BFUs by Naked_siRNA vs Negative_siRNA,Treatment Dilution 1,0%
same,Inhibition of BFUs by Naked_siRNA vs Negative_siRNA,Treatment Dilution 5,34%
same,Inhibition of BFUs by Naked_siRNA vs Negative_siRNA,Treatment Dilution 15,18%
same,Inhibition of BFUs by Naked_siRNA vs Negative_siRNA,Treatment Dilution 45,0%
same,Inhibition of BFUs by Naked_siRNA vs Negative_siRNA,Treatment Dilution 135,0%
